The subject of this data set is T1, CrsR (response regulator of CrsRK) (Actinosynnema pretiosum X47), ORF:a04a2703.
T1 sequence: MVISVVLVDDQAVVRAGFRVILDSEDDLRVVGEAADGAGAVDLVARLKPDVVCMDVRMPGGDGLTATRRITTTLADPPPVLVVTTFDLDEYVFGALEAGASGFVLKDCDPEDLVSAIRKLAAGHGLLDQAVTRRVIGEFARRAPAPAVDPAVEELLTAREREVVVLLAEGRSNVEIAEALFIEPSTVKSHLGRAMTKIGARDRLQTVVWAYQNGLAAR
The data set can be described thus: EMSA. The conditions noted are these: EMSA: 50-100 fmol probe, 0.5-1 ug CrsR, binding buffer with poly(dI-dC) (salt and pH not stated), 20 min at room temperature, 8% native PAGE; protein dialyzed …. A general note: In EMSA bound probe runs differently from free probe, usually more slowly.
As to “ACTCGGTCGCCGTGGTCATGGCTACAGCCAACAACCTCGACCATGGTGGAGGTCAACAGTAAGGTTGAGCTGGTGAGCAAGTTGCCGGAGATGTTGACCATCGGCCAGGTCGCCGAGCGCAGCGGGGTGCCCCACACGGCGCTGCGGTTCTACGAGGAGCGCGGGCTGATCGCCTCGGAGCGCACGGCGGGCAACCAGCGCCGCTACCCCAGGCACGTGCTGCGCAGGCTCGCGTTCATCCGCACCGCGCAGCGGGTCGGGCTGAGCCTGGAGGAGGTGCG (double strand) [asm13 promoter probe (asm13-15, asm10-12)]”, the binding entry is on record as “no binding”.

Take “CCGGTTCCCGTTCATCCAATTGTGCGCACGACCGCGCCGCCGTGCCCGCGTGCTGCGGTGATGGCCTGGGAACAGGGGGGATTAGGGGGAGGTCAAGGGGGTTGGTCGGGATCTGCGGAATCGGTAGCGTCGAATTCCGAAAGCCGGCCGCGGTGAATTCCCCCGCGCCATTTCCGCGAACGACGGGACAGGGGCTCATGGGCA (double strand) [asm43 promoter probe (asm43-44)]”: the binding entry is listed as “binds”.

For the sequence “CGGACAGACCGATCCCCGAGTCGTGCGGGCCCGAGCCGTGGACGCGCGGGCCGTGGACGCGCGAGCCGCGACCGCCGCCCCCACGACCGCCGCCCCCACGACCGCCGCTCCGGCGACCACTGCTCCGGCGACCGCCGCTCCGGCGACCGCCGCTCCGGCGACCGCCGCTCCGGCGACCGCCGCCCCCACGACCACTCCTCCGCGCCCCCGCGTCCCCCAGGCCCCCGCGCCCCACCGGCACGTTCCGGGCGCGACCTACGACCGGGCCGTGCTGTTCGACCTCGACGGG (double strand) [asm45 promoter probe (asm45-47)]”, the binding result is given as “binds”.

Turning to “CGGTCCACCAGCCGCATCCCTCGCCTCCCCCGCGTCCGCCCCGCCGACCTTCAGGCATGTCAACAGCCCTGTCAGTCGTCTTGTCCACGCCCCGACCACCGCACCCCCACTGGCCGCCCACCCGCGCCGGGAAAACCACGAAGTCCCCTGCCGCGCGGGCGTCCCAGGTCGGACACTCCTGAGCGCACCCCCGCACCCGTTCCAGGAGGC (double strand) [asm7 promoter probe]”, the binding entry is listed as “no binding”.

For the sequence “GGAGGGACGAGCGGAGACCGGGTCGCGGGACTCCACTTCGGACGGTAGGGCACGCGGGCGCCGTTGGCAGTTGCCGCTTCCACGGCTGGCGAACAAAGCGGTAATCCCTTGCGCCACAGGCGATTGACACCCCGGCGAGGCCCTGGTTTCACTGCTGTCCGCACGTCACCGGCGCGAGGAGGCCCCCGTGAAGTACATGCTGCTCATCCAC (double strand) [asm21 promoter probe]”, the binding result is listed as “binds”.

On to “GGTCGGGCACCAGGAACACCTCGCAGAGCGCAAAGACGTGAGTGGACGGTGCGATTGTGCTGACGGCCTGACCCCGGTGGTGGGGACCGCGGCGAACCGGCTGAACGCAGGGGGGACCTAGGGGGGCGTCAGGGGGTTGGGGGGCTCTTCCGGCCGCCGTTAGCTTCGGGCCGCGCACCGGCCCCCGGAGAGCGCGCCGGACCGAGAGCAGAGACGAGGGCGACCGACCGTGCACCTGAAGGCCCCGCAGAAGCT (double strand) [asm24 promoter probe]”, for which the binding result was “no binding”.

With “TGACGGCGTCGGGTGAGGCCGCCGCTGGCCCTGGGACGGCGCTGCGCGCCCCCTCGGACCCACCGGAGCCGCCACCACCGCTTGTCCCCTTCCACCGGGTGGGGCGCGGTCGGTAATCCGGCGGCAATTCCTTCCCCCGTCCGGGCTAGCCAGGCCCGTGCGCCCGCGTCGCGCACGGGCCAAGGTGGGTGGCTGCGCGGATGACCGGGCCCCCGAACCGGATGTGGGAGAGATGCTGCGAAGCGAC (double strand) [asmA promoter probe]”, the binding entry was “no binding”.

For the origin of these results see publication PMC12623338.
